Measured values reported in the nanobody polyreactivity screen of Harvey et al. (2022).

Assay: yeast display, Sf9 membrane polyspecificity reagent, FACS + sequencing; frameworks hold sequencing errors
Summary of the method: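 Genes from sorted yeast were amplified by colony PCR, read by MiSeq 2 × 250 sequencing and filtered on CDR length. These cells carried a synthetic nanobody library in Saccharomyces cerevisiae BJ5465 and were sorted by FACS into low and high (top ~1%) gates on anti-HA and streptavidin fluorescence. Polyreactivity is labelled according to the gate of origin.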

Row | Sequence | polyreactivity (PSR sort gate)
1 | QVQLVESGGGLVQAGGSLRLSCAASGFTFRYYAMGCYRPAPGKERELVAAISSRGGTTYYADSVKGRFTISRDNAKNTVYLQMNSLKPEDTAVYYCAATYAYGRYYGYVYLGDYWGQGTQVTVSS | high polyreactivity
2 | QVQLVESGGGLVQAGGSLRLSCAASGFTFRYYAMGWFRQAPGKESELVAAITWSGGGTYYADSVKGRFTISRYNAKNTVYLQMNSLKPEDTAVYYCNVYKSHRHQAEYNYWGQGTKVTVSS | high polyreactivity
3 | QVQLVESGGGLVQAGGSLRLSCAASGFTFRYYAMGWYRPAPGKERELVAAISSRGGSTYYADSVKGRFTISRDNAKNTVYLQINSLKPEDTAVYYCAVVRWRHYIFATYDYWGQGTQVTVSS | high polyreactivity
4 | QVQLVESGGGLVQAGGSLRLSCAASGFTFRYYAMGWYRQAPGKEREFVAAIRWRGATTYYADSVKGRFTISRDNAKNTVLLQMNSLKPEDTAVYYCAARYVYNSDRVSERDYWGQGTQVTVSS | high polyreactivity
5 | QVQLVESGGGLVQAGGSLRLSCAASGFTFRYYAMGWYRQAPGKERELVAAIRRSGGSTYYADSVKGRFTISRDNAKNTVYLQMNSLKPEDTAVYYCAAVGPTYWRGYPSGYDYWGQGTQVTVSS | high polyreactivity
6 | QVQLVESGGGLVQAGGSLRLSCAASGFTFRYYAMGWYRQAPGKERELVASITSSGSTNYADSVKGRFTISRDNAKNTVYLQMNSLKPEDTAVYYCAKGWGSDPFRKYGDYWGQGTQVTVSS | high polyreactivity
7 | QVQLVESGGGLVQAGGSLRLSCAASGFTFRYYPMGWYRQAPGKERELVAAISWDRDSTYYADSVKGRFTISRDHAKHTVYFQMNSLKPEDTAVYYCAPEYRSWGRYRYRFNYWGQGTQVTVSS | high polyreactivity
8 | QVQLVESGGGLVQAGGSLRLSCAASGFTFRYYTMGWYRQAPGKERELVAAINRSGSTNYADSVKGRFTISRDNAKNTVYLQMNSLKPEDTAVYYCAAAYYGSHGRYDYWGQGTQVTVSS | high polyreactivity
9 | QVQLVESGGGLVQAGGSLRLSCAASGFTFRYYTMGWYRQAPGKETELVAAINTSGAGTYYADSVKGRFTISRDNAKNTVYLQMNSLKPEDTAVYYCAATWYGLDYNYWGQGTQVTVSS | high polyreactivity
10 | QVQLVESGGGLVQAGGSLRLSCAASGFTFRYYTMVWYRQAPGKERELVAAITSSGGNTYYADSVKGRFTISRDNAKNTVYLQMNSLKPEDTAVYYCAADAYPQYNGWSWMDYWGQGTQVTVSS | low polyreactivity
11 | QVQLVESGGGLVQAGGSLRLSCAASGFTFRYYVMGWYRQAPGKERELVAAISTRGGRTYYADSVKGRFTISRDNAKNTVYLQMNSLKPEDTAVYYCAKDAHHSYTWGYGYWGQGTQVTVSS | high polyreactivity
12 | QVQLVESGGGLVQAGGSLRLSCAASGFTFSAYAMGWYRQAPGKERELVAAISTRGGSTRYADSVKGRFTISRDNAKNTVYLQMNSLKPADTAVYSCAADTRSFYRYDYWGQGTQVTVSS | high polyreactivity
13 | QVQLVESGGGLVQAGGSLRLSCAASGFTFSAYTMGWYRQAPGKERELVAAINWSGANTYYADSVKGRFTISRDNAKNTVYLQMNSLKPEDTAVYYCNAEDDYTYDRSFGGYKYDYWGQGTQVTVSS | low polyreactivity
14 | QVQLVESGGGLVQAGGSLRLSCAASGFTFSDNAMVWYRQAPGKERELVAAISEGSGITYDADSVKGRFTISRDNAKNTVNLQMNSLKPEDNAVYYCAADWLSKYDYWGQGTQVTVSS | low polyreactivity
15 | QVQLVESGGGLVQAGGSLRLSCAASGFTFSFYAMGWYRQAPGKERELVAAITNGGSTYYADSVKGRFTISRDNAKNTVYLQMNSLKPEDTAVYYCAAEWDYPWWRIVAVYGYEYWGQGTQVTVSS | low polyreactivity
16 | QVQLVESGGGLVQAGGSLRLSCAASGFTFSFYARGWYIQAPGKERELVAAIDRSGGSTYYADSVKGRFTISRDNAKNTVYLQMNSLKPEDTAVYYCAATVFYGYYYWGQGTQVTVSS | high polyreactivity

Row | Sequence | polyreactivity (PSR sort gate)
17 | QVQLVESGGGLVQAGGSLRLSCAASGFTFSGYAMGWYRQAPGKERELVASISRRGGSTYYADSVKGRFTISRDNAKNTVYLQMNSLKPEDTAVYYCATLRGRLRFGYDYWGQGTQVTVSS | high polyreactivity
18 | QVQLVESGGGLVQAGGSLRLSCAASGFTFSGYAMGWYRQAPGKERELVASITGSGSSTYYADSVKGRFTISRDNAKNNVYLQMNSLKPEDTAVYYCNAQFIGGWWAIYDYWGQGTQVTVSS | high polyreactivity
19 | QVQLVESGGGLVQAGGSLRLSCAASGFTFSKYTMGWYRQAPGQERELVARITRRGGSTYYADSVKGRFTISRDNAKNTVYLQMNSLKPEDTAVYYFAADVYAYNGEYDYWGQGTQVTVSS | high polyreactivity
20 | QVQLVESGGGLVQAGGSLRLSCAASGFTFSLYAMGWYRQAPGKERELVAAISRSGGSTYYADSVKGRFTISRDNAKNTVYLQMNSLNPEDTAVYYCAAREQTYTQRGKKLYYYWGQGTQVTVSS | high polyreactivity
21 | QVQLVESGGGLVQAGGSLRLSCAASGFTFSLYAMGWYRQAPGKERELVAAISSRGGTTYYADSVKGRFTISRDNAKNTVYLQMNSLKPEDTAVYYCAARYVYTRSAFDYWGQGTQVTVSS | high polyreactivity
22 | QVQLVESGGGLVQAGGSLRLSCAASGFTFSLYAMGWYRQAPGKERELVAAITWSGTRTYYADSVKGRFTISRDNAKNTVYLQMNSLKPEDTAVYYCATQGYGYRGWRNLYDYDYWGQGTQVTVSS | high polyreactivity
23 | QVQLVESGGGLVQAGGSLRLSCAASGFTFSLYDMGWYRQAPGKERELVAAISSDGSTNYADSVKGRFTISRDNAKNTVYLQMNSLKPEDTAVYYCAADETFLSYWLNYWGQGTQVTLSS | low polyreactivity
24 | QVQLVESGGGLVQAGGSLRLSCAASGFTFSLYDMGWYRQAPGKERQLVADINGSGGSTYYADSVKGRFTISRDNAKNTVYLQMNSLKPEDTAVYYCAAGPPSRWWYIVDYGYWGQGTQVTVSS | high polyreactivity
25 | QVQLVESGGGLVQAGGSLRLSCAASGFTFSPNAMGWYRQAPGKERELVAAIDWSGDRTYSADSVKGRFTISRDNAKNTVYLQMNSLKPEDTAVYYCNVVRRSPGDYSYFYWGQGTQVTVSS | low polyreactivity
26 | QVQLVESGGGLVQAGGSLRLSCAASGFTFSPYAMGWYRQATGKERELVAAIRWTDGSTYYADSVKGRFTISRDNAKNTVYLQMNSLKPEDTAVYYCAAYWYHNIGGYGPGLNYWGEGTQVTVSS | high polyreactivity
27 | QVQLVESGGGLVQAGGSLRLSCAASGFTFSQYAAMGWYRQAPGKERELVAAINISGSTNYADSVKGRFTISRDNAKNTVYLQMNSLKPEDTAVYYCNADVAPGIFYGYDSWGQGTQVTVSS | low polyreactivity
28 | QVQLVESGGGLVQAGGSLRLSCAASGFTFSQYAMGWYRQAPGKERELVAAINSRGGSTYYADSVKGRFTISRDNAKNTVYLQINSLKPEDTAVYYCNAVISGYPYEYDYWGQGTQVTVSS | high polyreactivity
29 | QVQLVESGGGLVQAGGSLRLSCAASGFTFSQYAMGWYRQAPGKERELVAAITFSGDSTYYADSVKGRFTISRDNAKNTVYLQMNSLKPEDTAVYYCNADDWWGGYDYWGQGTQVTVSS | low polyreactivity
30 | QVQLVESGGGLVQAGGSLRLSCAASGFTFSRNAMGWYRQAPGKERELDAAITSSGGSTYYADSVKGRFTISRDNAKNTVYLQMNSLKPEDTAVYYCNVVPIWRKYLSQIYGYWGQGTQVTVSS | high polyreactivity
31 | QVQLVESGGGLVQAGGSLRLSCAASGFTFSRNDMGWYRQAPGKERELLASITTSGGGTYYADSVKGRFTISRDNAKNTVYLQMNSLKPEDTAVYYCAKDWFPWAGYYDFGYWGQGTQVTVSS | low polyreactivity
